The Kd is the equilibrium constant for the complex coming apart. A high value points to weaker binding.

One data set has as its target T1, GST-AtTZF1 full-length (Arabidopsis thaliana, UniProt O82307 1-315).
T1 sequence: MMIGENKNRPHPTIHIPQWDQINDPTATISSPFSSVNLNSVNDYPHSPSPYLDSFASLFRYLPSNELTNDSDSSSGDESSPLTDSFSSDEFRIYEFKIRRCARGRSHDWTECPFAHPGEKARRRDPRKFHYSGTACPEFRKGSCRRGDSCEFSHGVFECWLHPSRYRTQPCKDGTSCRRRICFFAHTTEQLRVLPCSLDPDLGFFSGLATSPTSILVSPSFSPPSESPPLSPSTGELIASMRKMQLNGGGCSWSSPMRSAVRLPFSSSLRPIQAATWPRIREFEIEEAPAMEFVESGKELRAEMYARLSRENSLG
Briefly: fluorescence anisotropy. On the technique in general: Polarisation of emitted light reports the rotation of a fluorescent probe.

Data set [1] addresses T2, MBP-AtTZF1 RR-TZF (Arabidopsis thaliana, UniProt O82307 86-195).
T2 sequence: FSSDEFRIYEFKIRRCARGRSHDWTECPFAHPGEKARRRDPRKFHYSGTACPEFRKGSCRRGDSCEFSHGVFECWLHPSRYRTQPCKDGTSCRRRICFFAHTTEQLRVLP
Briefly: fluorescence anisotropy.

Data set [2] deals with T3, MBP-AtTZF1 TZF (Arabidopsis thaliana, UniProt O82307 129-195).
T3 sequence: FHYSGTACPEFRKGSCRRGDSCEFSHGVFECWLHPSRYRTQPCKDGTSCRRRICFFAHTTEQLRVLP
Description: fluorescence anisotropy.

Data set [3] addresses T2, MBP-AtTZF1 RR-TZF. Description: EMSA. For orientation: Mobility shift assays separate free from complexed probe on a gel.
For another data set, the target named is T4, MBP-AtTZF1 RR (Arabidopsis thaliana, UniProt O82307 86-128).
T4 chain: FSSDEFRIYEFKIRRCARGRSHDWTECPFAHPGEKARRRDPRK
Description: EMSA.

In data set [4] the target is T3, MBP-AtTZF1 TZF. Description: EMSA.

As to UAUUUAUUAUUUAUUUAUU (ssRNA) [Fl-ARE19], the Kd in the data set with GST-AtTZF1 full-length was 4550 ± 130 nM; with MBP-AtTZF1 RR-TZF [1], 410 ± 50 nM.
Regarding UUUUUUUUUUUUUUUUUUU (ssRNA) [Fl-polyU], the figures for the Kd with MBP-AtTZF1 TZF [2], in the data set with GST-AtTZF1 full-length and with MBP-AtTZF1 RR-TZF [1] were 7370 ± 120 nM, 2270 ± 190 nM and 470 ± 30 nM, respectively.
UGUUUGUUGUUUGUUUGUU (ssRNA) [MutG]: the binding result with MBP-AtTZF1 RR-TZF [3] was “no binding”.
For UAUUUAUUAUUUAUUUAUU (ssRNA) [ARE19], the binding result with MBP-AtTZF1 RR and with MBP-AtTZF1 TZF [4] was “no binding” each time.
